The experiment has as its target GAL4-Nef (HIV-1 Nef fused to the GAL4 DNA-binding domain) (HIV-1). Nature of the experiment: two-hybrid.

On to “VP16-eEF1A (eEF1A fused to the VP16 activation domain) (from UniProt P68104 1-462) (natural protein)”, for which the relative luciferase expression stood at 1850 r.l.u.

These data come from PMC3944234.
